Laboratory results as given in patent publication US20130217060A1 (Butamax(TM) Advanced Biofuels LLC, priority 2007, published 2013).

Assays:
[1] = test system: trans-2-enoyl-CoA reductase; assay: Trans-2-enoyl-CoA reductase activity assay (Hoffmeister et al.); type: biochemical; conditions: induced E. coli BL21-AI culture carrying pRARE, one typical assay
Procedure: Trans-2-enoyl-CoA reductase activity was assayed as described by Hoffmeister et al. (J. Biol. Chem. 280, 4329-4338 (2005)).
Trans-2-enoyl-CoA reductase activity was assayed as described by Hoffmeister et al., J. Biol. Chem. 280:4329 (2005).
(§1) Enzyme assays were performed as described above.

crotonase = target: T1, crotonase (Clostridium acetobutylicum, UniProt P52046); assay: Crotonase activity assay (Stern); type: biochemical; conditions: induced E. coli BL21-AI culture, one typical assay
T1 construct: made in house; host or cells: E. coli BL21-AI (pDEST14crt); S. cerevisiae BY4741 (pNY11) and BY4743 (pNY103)
Procedure: Crotonase activity was assayed as described by Stern (Methods Enzymol. 1, 559-566, (1954)).
as §1

[2] = test system: butyraldehyde dehydrogenase; assay: Acylating aldehyde dehydrogenase activity (NADH formation, 340 nm); conditions: induced E. coli BL21-AI culture, one typical assay

B1: TER CAC0462 protein: putative trans-2-enoyl-CoA reductase (SEQ ID NO:10) from C. acetobutylicum ATCC 824 expressed in E. coli (protein, listed as Clostridium acetobutylicum)
chain: MIVKAKFVKGFIRDVHPYGCRREVLNQIDYCKKAIGFRGPKKVLIVGASSGFGLATRISVAFGGPEAHTIGVSYETGATDRRIGTAGWYNNIFFKEFAKKKGLVAKNFIEDAFSNETKDKVIKYIKDEFGKIDLFVYSLAAPRRKDYKTGNVYTSRIKTILGDFEGPTIDVERDEITLKKVSSASIEEIEETRKVMGGEDWQEWCEELLYEDCFSDKATTIAYSYIGSPRTYKIYREGTIGIAKKDLEDKAKLINEKLNRVIGGRAFVSVNKALVTKASAYIPTFPLYAAILYKVMKEKNIHENCIMQIERMFSEKIYSNEKIQFDDKGRLRMDDLELRKDVQDEVDRIWSNITPENFKELSDYKGYKKEFMNLNGFDLDGVDYSKDLDIELLRKLEP
- specific activity (trans-2-enoyl-CoA reductase) [1]: 0.694 µmol/mg/min

B2: crotonase protein: crotonase (SEQ ID NO:8) from C. acetobutylicum ATCC 824 expressed in E. coli (protein, listed as Clostridium acetobutylicum)
chain: MELNNVILEKEGKVAVVTINRPKALNALNSDTLKEMDYVIGEIENDSEVLAVILTGAGEKSFVAGADISEMKEMNTIEGRKFGILGNKVFRRLELLEKPVIAAVNGFALGGGCEIAMSCDIRIASSNARFGQPEVGLGITPGFGGTQRLSRLVGMGMAKQLIFTAQNIKADEALRIGLVNKVVEPSELMNTAKEIANKIVSNAPVAVKLSKQAINRGMQCDIDTALAFESEAFGECFSTEDQKDAMTAFIEKRKIEGFKNR
- specific activity (crotonase) (crotonase): 444 µmol/mg/min

B3: Ald protein: butyraldehyde dehydrogenase (SEQ ID NO:12) from C. beijerinckii ATCC 35702 expressed in E. coli (protein, listed as Clostridium beijerinckii)
chain: MNKDTLIPTTKDLKVKTNGENINLKNYKDNSSCFGVFENVENAISSAVHAQKILSLHYTKEQREKIITEIRKAALQNKEVLATMILEETHMGRYEDKILKHELVAKYTPGTEDLTTTAWSGDNGLTVVEMSPYGVIGAITPSTNPTETVICNSIGMIAAGNAVVFNGHPCAKKCVAFAVEMINKAIISCGGPENLVTTIKNPTMESLDAIIKHPSIKLLCGTGGPGMVKTLLNSGKKAIGAGAGNPPVIVDDTADIEKAGRSIIEGCSFDNNLPCIAEKEVFVFENVADDLISNMLKNNAVIINEDQVSKLIDLVLQKNNETQEYFINKKWVGKDAKLFLDEIDVESPSNVKCIICEVNANHPFVMTELMMPILPIVRVKDIDEAIKYAKIAEQNRKHSAYIYSKNIDNLNRFEREIDTTIFVKNAKSFAGVGYEAEGFTTFTIAGSTGEGITSARNFTRQRRCVLAG
- specific activity (acylating aldehyde dehydrogenase) [2]: 0.106 µmol/mg/min
